Laboratory results published in paper PMC6033896, “Discovery of Mcl-1 inhibitors from integrated high throughput and virtual screening” (Scientific Reports, 2018).

Target: recombinant Bfl-1 protein (UniProt Q16548)
Experiment: fluorescence polarisation; direct binding of the fluorescent Bid probe to recombinant protein; Ex 485 nm, Em 530 nm, room temperature; buffer of the Kd determination not told apart from the two competitive assay buffers

recombinant Bfl-1 protein, sequence (Q16548 whole entry): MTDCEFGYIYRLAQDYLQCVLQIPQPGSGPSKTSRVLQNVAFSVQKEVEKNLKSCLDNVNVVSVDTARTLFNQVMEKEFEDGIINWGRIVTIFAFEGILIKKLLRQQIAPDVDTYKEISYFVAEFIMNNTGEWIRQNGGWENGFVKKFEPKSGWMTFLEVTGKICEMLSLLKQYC

Kd: 0.3 nM
Substance: fluorescent labelled Bid BH3 peptide
